Measurements reported in patent US20230357427A1 (SHANGHAI IMMUNOHEAD BIOTECHNOLOGY, published 2023).

T1: EpCAM on human tumor cells (SW480, HCT116, HCT116-Luc, KATO-III, A549) (human, UniProt P16422 24-314)
T1 construct: whole, on cells; also called epithelial cell adhesion molecule
T1 sequence (looked up): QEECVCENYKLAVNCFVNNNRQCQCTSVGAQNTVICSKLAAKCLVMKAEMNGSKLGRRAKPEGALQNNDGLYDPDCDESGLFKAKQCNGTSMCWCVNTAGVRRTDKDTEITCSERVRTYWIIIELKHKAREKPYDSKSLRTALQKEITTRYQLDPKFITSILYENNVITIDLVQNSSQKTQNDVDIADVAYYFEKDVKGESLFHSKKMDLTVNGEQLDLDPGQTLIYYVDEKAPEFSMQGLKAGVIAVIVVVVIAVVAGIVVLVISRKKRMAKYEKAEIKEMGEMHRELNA

B1: H2L1 (antibody, V domains shown)
VH: QVQLVQSGAEVKKPGASVKVSCKASGYTFTNYWINWVRQAPGQGLEWIGNIYPSYIYTNYNQEFKDKVTLTVDESTSTAYMELSSLRSEDTAVYYCTRSPYGYDEYGLDYWGQGTTVTVSS
VL: DIQLTQSPSSLSASVGDRVTMTCKSSQSLLNSRNQKNYLTWYQQKPGKAPKLLIYWASTRESGVPSRFSGSGSGTDFTLTISSVQPEDFATYYCQNDYVYPLTFGQGTKLEIK
notes: Recombinant antibody from ExpiCHO-s; the limits were counted from the printed signal peptide, linker and hinge
B2: H2L4 (antibody, V domains shown)
VH: QVQLVQSGAEVKKPGASVKVSCKASGYTFTNYWINWVRQAPGQGLEWIGNIYPSYIYTNYNQEFKDKVTLTVDESTSTAYMELSSLRSEDTAVYYCTRSPYGYDEYGLDYWGQGTTVTVSS
VL: EIVLTQSPATLSLSPGERATMSCKSSQSLLNSRNQKNYLTWYQQKPGQAPRLLIYWASTRESGIPARFSGSGSGTDFTLTISSLEPEDFAVYYCQNDYVYPLTFGQGTKLEIK
notes: as for B1
B3: H2L3 (antibody, V domains shown)
VH: QVQLVQSGAEVKKPGASVKVSCKASGYTFTNYWINWVRQAPGQGLEWIGNIYPSYIYTNYNQEFKDKVTLTVDESTSTAYMELSSLRSEDTAVYYCTRSPYGYDEYGLDYWGQGTTVTVSS
VL: DIVLTQSPDSLAVSLGERATMNCKSSQSLLNSRNQKNYLTWYQQKPGQPPKLLIYWASTRESGVPDRFSGSGSGTDFTLTISSLQAEDVAVYYCQNDYVYPLTFGQGTKLEIK
notes: as for B1
B4: H1L1 (antibody, V domains shown)
VH: QVQLVQSGAEVKKPGASVKLSCKASGYTFTNYWINWVKQAPGQGLEWIGNIYPSYIYTNYNQEFKDKVTLTVDESTSTAYMELSSLRSEDTAVYYCTRSPYGYDEYGLDYWGQGTTVTVSS
VL: DIQLTQSPSSLSASVGDRVTMTCKSSQSLLNSRNQKNYLTWYQQKPGKAPKLLIYWASTRESGVPSRFSGSGSGTDFTLTISSVQPEDFATYYCQNDYVYPLTFGQGTKLEIK
notes: Recombinant antibody from ExpiCHO-s; These limits were counted from the printed signal peptide, linker and hinge
B5: H3L3 (antibody, V domains shown)
VH: QVQLVQSGAEVKKPGASVKVSCKASGYTFTNYWINWVRQAPGQGLEWIGNIYPSYIYTNYNQEFKDRVTLTRDTSISTAYMELSRLRSDDTAVYYCTRSPYGYDEYGLDYWGQGTTVTVSS
VL: DIVLTQSPDSLAVSLGERATMNCKSSQSLLNSRNQKNYLTWYQQKPGQPPKLLIYWASTRESGVPDRFSGSGSGTDFTLTISSLQAEDVAVYYCQNDYVYPLTFGQGTKLEIK
notes: as for B1
B6: H3L2 (antibody, V domains shown)
VH: QVQLVQSGAEVKKPGASVKVSCKASGYTFTNYWINWVRQAPGQGLEWIGNIYPSYIYTNYNQEFKDRVTLTRDTSISTAYMELSRLRSDDTAVYYCTRSPYGYDEYGLDYWGQGTTVTVSS
VL: DIQLTQSPSSLSASVGDRVTMTCKSSQSLLNTRNQKNYLTWYQQKPGKAPKLLIYWASTRESGVPSRFSGSGSGTDFTLTISSLQPEDFATYYCQNDYVYPLTFGQGTKLEIK
notes: as for B1
B7: H2L2 (antibody, V domains shown)
VH: QVQLVQSGAEVKKPGASVKVSCKASGYTFTNYWINWVRQAPGQGLEWIGNIYPSYIYTNYNQEFKDKVTLTVDESTSTAYMELSSLRSEDTAVYYCTRSPYGYDEYGLDYWGQGTTVTVSS
VL: DIQLTQSPSSLSASVGDRVTMTCKSSQSLLNTRNQKNYLTWYQQKPGKAPKLLIYWASTRESGVPSRFSGSGSGTDFTLTISSLQPEDFATYYCQNDYVYPLTFGQGTKLEIK
notes: as for B1
B8: H1L3 (antibody, V domains shown)
VH: QVQLVQSGAEVKKPGASVKLSCKASGYTFTNYWINWVKQAPGQGLEWIGNIYPSYIYTNYNQEFKDKVTLTVDESTSTAYMELSSLRSEDTAVYYCTRSPYGYDEYGLDYWGQGTTVTVSS
VL: DIVLTQSPDSLAVSLGERATMNCKSSQSLLNSRNQKNYLTWYQQKPGQPPKLLIYWASTRESGVPDRFSGSGSGTDFTLTISSLQAEDVAVYYCQNDYVYPLTFGQGTKLEIK
notes: as for B1
B9: H4L1 (antibody, V domains shown)
VH: QVQLVQSGAEVKKPGASVKVSCKASGYTFTNYWINWVRQAPGQGLEWIGNIYPSYIYTNYAQKFQGRVTLTRDTSTSTVYMELSSLRSEDTAVYYCTRSPYGYDEYGLDYWGQGTTVTVSS
VL: DIQLTQSPSSLSASVGDRVTMTCKSSQSLLNSRNQKNYLTWYQQKPGKAPKLLIYWASTRESGVPSRFSGSGSGTDFTLTISSVQPEDFATYYCQNDYVYPLTFGQGTKLEIK
notes: as for B1
B10: H5L1 (antibody, V domains shown)
VH: QVQLVQSGAEVKKPGASVKVSCKASGYTFTNYWINWVRQAPGQGLEWIGNIYPSYIYTNYNQEFKDRVTMTRDTSISTAYMELSRLRSDDTAVYYCTRSPYGYDEYGLDYWGQGTTVTVSS
VL: DIQLTQSPSSLSASVGDRVTMTCKSSQSLLNSRNQKNYLTWYQQKPGKAPKLLIYWASTRESGVPSRFSGSGSGTDFTLTISSVQPEDFATYYCQNDYVYPLTFGQGTKLEIK
notes: as for B1
B11: H3L1 (antibody, V domains shown)
VH: QVQLVQSGAEVKKPGASVKVSCKASGYTFTNYWINWVRQAPGQGLEWIGNIYPSYIYTNYNQEFKDRVTLTRDTSISTAYMELSRLRSDDTAVYYCTRSPYGYDEYGLDYWGQGTTVTVSS
VL: DIQLTQSPSSLSASVGDRVTMTCKSSQSLLNSRNQKNYLTWYQQKPGKAPKLLIYWASTRESGVPSRFSGSGSGTDFTLTISSVQPEDFATYYCQNDYVYPLTFGQGTKLEIK
notes: as for B1
B12: H1L4 (antibody, V domains shown)
VH: QVQLVQSGAEVKKPGASVKLSCKASGYTFTNYWINWVKQAPGQGLEWIGNIYPSYIYTNYNQEFKDKVTLTVDESTSTAYMELSSLRSEDTAVYYCTRSPYGYDEYGLDYWGQGTTVTVSS
VL: EIVLTQSPATLSLSPGERATMSCKSSQSLLNSRNQKNYLTWYQQKPGQAPRLLIYWASTRESGIPARFSGSGSGTDFTLTISSLEPEDFAVYYCQNDYVYPLTFGQGTKLEIK
notes: as for B1
B13: mHmL (antibody, V domains shown)
VH: QVKLQQSGAELVRPGASVKLSCKASGYTFTNYWINWVKQRPGQGLEWIGNIYPSYIYTNYNQEFKDKVTLTVDESSSTAYMQLSSPTSEDSAVYYCTRSPYGYDEYGLDYWGQGTTVTVSS
VL: DIELTQSPSSLTVTAGEKVTMNCKSSQSLLNSRNQKNYLTWYQQKPGQPPKLLIYWASTRESGVPDRFTGSGSGTDFTLTISSVQAEDLAVYYCQNDYVYPLTFGAGTKLEIK
notes: it was captured on Protein A; also called original antibody mHmL; EpCAM antibody

Columns and labels:
[1] = target: T1, EpCAM on human tumor cells (SW480, …); experiment: flow cytometry on SW480 cells
Description: (§1) The EC50 values of each recombinant antibody on SW480 and HCT116 are shown in Table 3, which are derived from FIGS. 1-4.

[2] = target: T1, EpCAM on human tumor cells (SW480, …); experiment: flow cytometry on HCT116 cells
Description: as §1

Binder | EC50 [1] | EC50 [2]
B1 | 0.599 mg/L | 0.583 mg/L
B2 | 0.655 mg/L | 0.584 mg/L
B3 | 0.653 mg/L | 0.584 mg/L
B4 | 0.567 mg/L | 0.503 mg/L
B5 | 0.542 mg/L | 0.492 mg/L
B6 | 0.569 mg/L | 0.472 mg/L
B7 | 0.595 mg/L | 0.537 mg/L
B8 | 0.631 mg/L | 0.563 mg/L
B9 | 0.568 mg/L | 0.474 mg/L
B10 | 0.449 mg/L | 0.426 mg/L
B11 | 0.564 mg/L | 0.478 mg/L
B12 | 0.675 mg/L | 0.602 mg/L
B13 | 0.581 mg/L | 0.468 mg/L
